Biological target: recombinant circular RABV N10-RNA complex purified from insect cells (phosphorylated) (rabies virus (RABV), UniProt Q8JXF6 1-450)
Assay: SPR
Details: both partners purified

Sequence of recombinant circular RABV N10-RNA complex purified from insect cells (phosphorylated) (Q8JXF6 whole entry, one chain of several): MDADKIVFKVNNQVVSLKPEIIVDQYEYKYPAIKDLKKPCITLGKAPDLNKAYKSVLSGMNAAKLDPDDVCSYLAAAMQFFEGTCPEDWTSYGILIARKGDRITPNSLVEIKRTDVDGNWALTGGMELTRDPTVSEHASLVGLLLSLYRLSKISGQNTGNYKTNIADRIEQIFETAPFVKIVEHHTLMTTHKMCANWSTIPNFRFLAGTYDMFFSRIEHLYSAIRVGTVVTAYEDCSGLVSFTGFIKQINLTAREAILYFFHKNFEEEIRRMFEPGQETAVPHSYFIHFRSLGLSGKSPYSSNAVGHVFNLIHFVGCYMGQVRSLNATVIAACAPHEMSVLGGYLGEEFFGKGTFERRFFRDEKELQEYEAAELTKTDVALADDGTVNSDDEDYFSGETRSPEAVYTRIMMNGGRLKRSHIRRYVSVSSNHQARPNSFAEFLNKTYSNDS

B1: C-terminal domain of RABV phosphoprotein P (PCTD) (domain or fragment)
chain: WSATNEEDDLSVEAEIAHQIAESFSKKYKFPSRSSGIFLYNFEQLKMNLDDIVKEAKNVPGVTRLAHDGSKIPLRCVLGWVALANSKKFQLLVEADKLSKIMQDDLNRYTSC
Kd: 0.16 ± 0.02 µM
stoichiometry N: 2 ± 0.2
